Assay [1] concerns the target 细胞表面4-1BB抗原 (human 4-1BB on CHO-K1-Hu4-1BB stable cells; CD137 on lymphocytes) (human). The experiment in a line: flow cytometry on CHO-K1-Hu4-1BB cells. A general note: Flow cytometry measures light scatter and fluorescence of single cells or particles in a stream.
The target of assay [2] is 人4-1BB抗原 (recombinant, purified from 293 cell supernatant by Protein A) (human). In words: ELISA on coated 4-1BB antigen. In general terms: An ELISA detects its analyte on a solid surface through an enzyme-linked reagent.
Assay [3] addresses T1, 细胞表面HER2抗原 (HER2 on SKOV3, N87, MCF-7/HER2, MCF-7, JIMT-1, AC16 cells) (human, UniProt P04626 23-1255).
T1 construct: whole, on cells
The experiment in a line: flow cytometry on AC16 cells.

Assay [4] has as its target T1, 细胞表面HER2抗原 (HER2 on SKOV3, N87, …). The experiment in a line: flow cytometry on JIMT-1 cells.
For assay [5] the target is unchanged. In words: flow cytometry on N87 cells.
Assay [6] has the same target. The experiment in a line: flow cytometry on MCF-7/HER2 cells.
For assay [7] the target is unchanged. In words: flow cytometry on SKOV3 cells.
Assay [8] has as its target T2, HER2抗原 (human HER2/ErbB2 in lysate of T6-17 cells, coated on ELISA plate) (human, UniProt P04626 23-1255).
T2 construct: The antigen is a crude detergent lysate of cells with high membrane expression of human HER2, not a purified protein
The experiment in a line: ELISA on coated T6-17 cell lysate.

人4-1BB抗原 (recombinant, purified from 293 cell supernatant by Protein A) (human), sequence (chain, as listed by the source): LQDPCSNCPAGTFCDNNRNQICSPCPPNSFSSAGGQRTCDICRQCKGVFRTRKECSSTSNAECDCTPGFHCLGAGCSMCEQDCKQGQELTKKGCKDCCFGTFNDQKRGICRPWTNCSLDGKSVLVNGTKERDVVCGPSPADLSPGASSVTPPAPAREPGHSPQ
细胞表面4-1BB抗原 (human 4-1BB on CHO-K1-Hu4-1BB stable cells; CD137 on lymphocytes) (human), sequence (chain, as listed by the source): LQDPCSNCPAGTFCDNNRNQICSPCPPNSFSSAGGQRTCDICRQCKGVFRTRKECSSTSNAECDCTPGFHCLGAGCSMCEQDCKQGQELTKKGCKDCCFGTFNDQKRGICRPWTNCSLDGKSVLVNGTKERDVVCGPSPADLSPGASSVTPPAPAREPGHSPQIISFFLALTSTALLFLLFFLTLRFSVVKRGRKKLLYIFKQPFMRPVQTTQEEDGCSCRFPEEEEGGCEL

B1: 抗人4-1BB单克隆抗体 HuB6 (antibody, V domains shown)
VH: QVQLQESGPGLVKPSETLSITCTVSGSSLTSYGVHWVRQPPGKGLEGLGVIWPGGSTNYNSALMSRLTISKDNSKSQVSLKMSSLTAADTAMYYCARVTGTWYFDVWGQGTTVTVSS
VL: DIQMTQSPSSLSASLGDRVTISCSASQGISNYLNWYQQKPDGTVKLLIYYTSTLHSGVPSRFSGSGSGTDFTLTISSLQPEDVATYYCQQYSKLPWTFGGGTKLEIK
notes: Monoclonal antibody; also called Hanke10F4 (专利申请201911105611.1)
In the case of B1, the figures for the 50% effective concentration (EC50) in assay [1] and in assay [2] were 2.49 µg/mL and 6.34 ng/mL, respectively.

B2: 抗人HER2单克隆抗体 Trastuzumab (Herceptin) (antibody, V domains shown)
VH: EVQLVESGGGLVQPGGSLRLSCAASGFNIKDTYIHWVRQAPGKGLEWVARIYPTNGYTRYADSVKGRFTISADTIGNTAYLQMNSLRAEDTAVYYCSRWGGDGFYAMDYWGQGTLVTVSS
VL: DIQMTQSPSSLSASVGDRVTITCRASQDVNTAVAWYQQKPGKAPKLLIYSASFLYSGVPSRFSGSRSGTDFTLTISSLQPEDFATYYCQQHYTTPPTFGGGTKLTVLG
notes: IgG1, kappa; also called 曲妥珠单抗
For the molecule B2, the 50% effective concentration (EC50) in assay [3] was found to be 0.851 µg/mL; in assay [4] it was 1.1 µg/mL; in assay [5] it was 2 µg/mL; in assay [6] it was 1.39 µg/mL; in assay [7], 1.23 µg/mL; in assay [8], 0.104 µg/mL.

By EC50 is commonly meant the midpoint of the concentration-response curve.
